Source: US10188706B2, “Plasminogen activator mutants as anti-fibrinolytic agents” (HADASIT MEDICAL RESEARCH SERVICES & DEVELOPMENT LIMITED, priority 2012, dated 2019)
“Also recorded” adds a separate entry of the source.

What was measured:
plasminogen = target: T1, plasminogen (Homo sapiens, UniProt P00747); assay: Ser481-Ala tPA/plasminogen protein interaction assay by co-immunoprecipitation; format: binding
T1 construct: Glu-plasminogen was prepared from human plasma; from tissue; host or cells: human plasma
Protocol: Ser^481-Ala tPA/Plasminogen Protein Interaction Assay by Co-Immunoprecipitation
Human Ser^481-Ala tPA and plasminogen, each at 100 nM final concentration in absence or presence of 1 μM uPA or fibrin degradation products, were incubated with goat polyclonal antibody to plasminogen and incubated with Protein A agarose. The protein A agarose beads were separated by centrifugation, washed, and boiled for 5 min. The beads were precipitated by centrifugation and the samples were run on NuPAGE 4-12%. As a control, 80 ng of human Ser^481-Ala tPA was loaded on the gel. The proteins from the gel were transferred onto a PVDF membrane. The membrane was blocked in milk/PBST before incubation for 1 hr with mouse monoclonal antibody to tPA. Subsequently it was washed, incubated with goat anti-mouse IgG-HRP conjugate, washed again, and detected with ECL.

WT-tPA = assay: Fibrinolysis assay in human plasma derived clots, lysis by WT-tPA; format: biochemical
Protocol: (§1) Fibrinolysis Assay in Human Plasma Derived Clots
(§2) Clots were formed by placing human plasma (200 μL) in 16-mm diameter tissue culture wells flowed by adding thrombin (0.4 U/mL final concentration). Fibrinolysis was measured as described in Higazi A A et al., Blood (1998), 92(6):2075-83). Briefly, 10 μL tPA or uPA were placed over the plasma clots for 2 hours at 37° C., photographed and the diameter of the wholes were determined.

uPA [1] = target: T2, uPA (Homo sapiens, UniProt P00749); assay: Fibrinolysis assay in human plasma derived clots, lysis by uPA; format: biochemical; details: uPA 50 nM; mutant 50 nM; FIG. 2A, 2B
T2 construct: Single-chain urokinase (uPA) was purified, characterized as previously reported; made in house
Protocol: as §1, §2

reteplase = reteplase (Homo sapiens, UniProt P00750); assay: Fibrinolysis assay in human plasma derived clots, lysis by reteplase; format: biochemical; details: reteplase 20 nM, mutant 10 nM, FIG. 2B
Protocol: as §1, §2

WT tPA = target: T3, WT tPA (Homo sapiens, UniProt P00750); assay: Fibrinolysis assay in clots from fresh whole human blood monitored by thromboelastography (TEG), lysis by WT tPA; format: biochemical; details: WT tPA 10 nM; 50 or 500 nM tPA-S481A; FIG. 2C
T3 construct: purchased Genentech (South San Francisco, Calif.)
Protocol: (§3) Fibrinolysis Assay in Blood Clots Derived from Fresh Whole Human Blood
(§4) Clot viscoelastic properties were assessed by thromboelastography (TEG®, Haemoscope) and rotational thromboelastometry (ROTEM®, Pentapharm). Both systems use a vertical pin within a cup that contains the WB sample. In TEG®, the cup oscillates and the pin is stationary whereas in ROTEM®, the cup is stationary while the pin oscillates. As a clot forms between the cup and the pin, the reduction in transmitted rotation from the cup to the pin (TEG®) or impedance to the oscillatory movement of the pin (ROTEM®) is detected and a trace is generated.

uPA [2] = target: T2, uPA; assay: Fibrinolysis assay in clots from fresh whole human blood monitored by thromboelastography (TEG), lysis by uPA; format: biochemical; details: uPA 10 nM; 50 or 500 nM tPA-S481A; FIG. 2C
Protocol: as §3, §4

tPA = assay: Plasminogen activator activity, chromogenic assay without fibrin, activation by tPA; format: biochemical, human; details: FIG. 2D; for plasminogen activation by tPA in the absence of fibrin, in the presence of TA: mutant 100 nM added together with TA
Protocol: (§5) Plasminogen Activator Activity
(§6) Plasminogen activator activity was determined by adding tPA (50 nM) or uPA (20 nM), to a reaction mixture containing Glu-plasminogen and the plasmin chromogenic substrate Spectrazyme PL (100 μM) in phosphate-buffered saline (PBS) at 37° C., and the light absorbance at 405 nm was measured continuously over time. The initial velocities of plasmin generation at the different conditions were calculated from the change in the A405 nm over time. The initial velocity of the reaction at each plasminogen concentration was obtained by calculating the change in the rate of A405 over different time intervals and the results were expressed as the change in optical density (ΔOD) per minute, which represents the slope of the initial velocity of plasminogen activation (Higazi A et al., J Biol Chem. (1995), 270(29):17375-80).

uPA [3] = target: T2, uPA; assay: Plasminogen activator activity, chromogenic assay without fibrin, activation by uPA; format: biochemical; details: FIG. 2D; for plasminogen activation by uPA in the absence of fibrin, in the presence of TA: mutant 100 nM added together with TA
Protocol: as §5, §6

WT mice subjected to CHI = assay: Closed head injury (CHI) model of TBI in WT mice; format: in vivo, mouse
Protocol: Eight to twelve weeks old C57 mice obtained from Harlan, Israel. Mice were administered standard laboratory chow and water ad libitum, and kept in controlled temperature and light conditions. Animal experiments were carried out according to the guidelines of the Hebrew University-Institutional Committee for Care and Use of Laboratory Animals, and with the committee's approval.
(§7) Closed Head Injury (CHI) Model
(§8) Head trauma was induced by using a modified weight-drop device, as previously described (Chen Y. et al. (1996) J. Neurotrauma, 13:557-568). Briefly, after induction of ether anesthesia, a midline longitudinal incision was made, the skin was retracted and the skull was exposed. The left anterior frontal area was identified and a Teflon tipped cone (2-mm diameter) was placed 1 mm lateral to the midline, in the midcoronal plane. The head was held in place manually and a 75-g weight was dropped on the cone from a height of 18 cm, resulting in focal injury to the left hemisphere. After trauma, the mice received supporting oxygenation with 95% 02 for no longer than 2 min and were then returned to their cages. In sham controls only anesthesia and skin incision were carried out.

[4] = test system: tPA-/- and uPA-/- mice subjected to CHI; assay: Closed head injury (CHI) model in tPA-/- and uPA-/- mice; format: in vivo, mouse; details: WT-tPA or WT-uPA 5 mg/kg plus equimolar dose of mutant
From the text: as §7, §8

[5] = test system: mice treated with Coumadin and subjected to CHI; assay: Closed head injury (CHI) in mice anticoagulated with warfarin (Coumadin); format: in vivo, mouse; details: WT mice, INR 2.5; tPA-S481A 1 mg/kg immediately after TBI; Hgb at 2 or 8 hrs; FIG. 6C
From the text: as §7, §8

NMDA-Rs = assay: Activation of NMDA-Rs by WT-tPA

Sequence of WT-tPA (P00750 36-562): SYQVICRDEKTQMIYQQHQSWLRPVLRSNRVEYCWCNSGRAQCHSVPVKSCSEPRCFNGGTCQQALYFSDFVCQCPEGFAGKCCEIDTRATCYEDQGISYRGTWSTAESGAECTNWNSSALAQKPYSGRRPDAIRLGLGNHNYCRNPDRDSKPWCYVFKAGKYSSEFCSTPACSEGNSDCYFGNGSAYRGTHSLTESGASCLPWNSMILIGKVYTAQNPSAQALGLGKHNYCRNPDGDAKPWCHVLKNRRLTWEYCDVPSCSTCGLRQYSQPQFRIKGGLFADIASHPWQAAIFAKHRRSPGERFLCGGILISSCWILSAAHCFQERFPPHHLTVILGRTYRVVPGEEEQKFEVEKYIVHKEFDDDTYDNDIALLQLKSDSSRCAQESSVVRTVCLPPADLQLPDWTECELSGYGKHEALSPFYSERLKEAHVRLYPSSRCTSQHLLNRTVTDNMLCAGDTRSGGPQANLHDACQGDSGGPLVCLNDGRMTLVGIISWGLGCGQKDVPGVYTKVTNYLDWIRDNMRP
T3 sequence (P00750 36-562): as above

B1: tPA-S^481A: catalytically inactive human tPA variant, Ser481 substituted to Ala; SEQ ID NO. 1 (SEQ ID NO. 12 with N-terminal RS) (protein, listed as Homo sapiens)
chain: GARSYQVICRDEKTQMIYQQHQSWLRPVLRSNRVEYCWCNSGRAQCHSVPVKSCSEPRCFNGGTCQQALYFSDFVCQCPEGFAGKCCEIDTRATCYEDQGISYRGTWSTAESGAECTNWNSSALAQKPYSGRRPDAIRLGLGNHNYCRNPDRDSKPWCYVFKAGKYSSEFCSTPACSEGNSDCYFGNGSAYRGTHSLTESGASCLPWNSMILIGKVYTAQNPSAQALGLGKHNYCRNPDGDAKPWCHVLKNRRLTWEYCDVPSCSTCGLRQYSQPQFRIKGGLFADIASHPWQAAIFAKHRRSPGERFLCGGILISSCWILSAAHCFQERFPPHHLTVILGRTYRVVPGEEEQKFEVEKYIVHKEFDDDTYDNDIALLQLKSDSSRCAQESSVVRTVCLPPADLQLPDWTECELSGYGKHEALSPFYSERLKEAHVRLYPSSRCTSQHLLNRTVTDNMLCAGDTRSGGPQANLHDACQGDAGGPLVCLNDGRMTLVGIISWGLGCGQKDVPGVYTKVTNYLDWIRDNMRP
- binding to plasminogen (complex formation) (plasminogen; in the absence of fibrin, 100 nM each): no complexes were formed
- binding to plasminogen (complex formation) (plasminogen; in the presence of fibrin, 100 nM each, immunoprecipitated with anti-plasminogen, detected with anti-tPA): binds to plasminogen only in the presence of fibrin; also recorded: formed a stable complex
- binding to plasminogen (complex formation) (plasminogen; with fibrin in the presence of 1 μM uPA): inhibited by uPA
- potency as inhibitor of fibrinolysis compared with TA (WT-tPA; TA tested at its maximal inhibitory concentration, FIG. 2B): more potent inhibitors of fibrinolysis than TA
- lysis of human plasma derived clots by WT-tPA (WT-tPA; WT-tPA 20 nM, mutant 50 nM, FIG. 2A, 2B): inhibited lysis
- lysis of human plasma derived clots by uPA (uPA [1]): inhibited lysis
- clot lysis induced by reteplase (reteplase): inhibit the clot lysis induced by reteplase
- clot lysis induced by reteplase (reteplase; listed as tPA^Ser481Ala): inhibit the fibrinolysis
- lysis of clots from fresh whole human blood monitored by TEG, by WT tPA (WT tPA): inhibited lysis
- lysis of clots from fresh whole human blood monitored by TEG, by uPA (uPA [2]): inhibited lysis
- plasminogen activation by tPA in the absence of fibrin, in the presence of TA (tPA): inhibited the plasminogen activation induced by tPA
- plasminogen activation by tPA in the absence of fibrin, in the presence of TA (tPA; listed as tPA^Ser481Ala): inhibit plasminogen activation
- plasminogen activation by tPA in the absence of fibrin (change in OD per minute) (tPA; plasminogen 500 nM, WT-tPA 50 nM, mutants 100 nM or TA 200 nM alone): Neither tPA-S^481A nor tPA-S^481A-DS inhibited; also recorded: had no effect
- plasminogen activation by uPA in the absence of fibrin, in the presence of TA (uPA [3]): inhibited the activation of plasminogen by uPA
- plasminogen activation by uPA in the absence of fibrin, in the presence of TA (uPA [3]; listed as tPA^Ser481Ala): inhibit plasminogen activation
- plasminogen activation by uPA in the absence of fibrin (change in OD per minute) (uPA [3]; plasminogen 500 nM, uPA 20 nM, mutants 100 nM or TA 200 nM alone): Neither tPA-S^481A nor tPA-S^481A-DS inhibited; also recorded: had no effect
- intracerebral hemorrhage increased by injected WT-tPA post CHI (WT mice subjected to CHI; WT mice given WT-tPA 5 mg/kg immediately after CHI plus equimolar mutant): could be inhibited
- plasma levels of d-Dimers post CHI (WT mice subjected to CHI; WT mice, 1 mg/kg IV, measured 2 hours after CHI, FIG. 4A, 1 mg/kg): significantly attenuated the increase in d-Dimers; also recorded: inhibited the formation of d-Dimers
- platelet counts / thrombocytopenia post CHI (WT mice subjected to CHI; WT mice, 1 mg/kg IV, measured 2 hours after CHI, FIG. 4B, 1 mg/kg): prevented the development of thrombocytopenia; also recorded: inhibited the development of thrombocytopenia
- CSF fibrinolytic activity post CHI (WT mice subjected to CHI; WT mice, IV after CHI, CSF obtained 2 hours after CHI, tested on plasma derived clots): inhibited CSF fibrinolytic activity
- intracerebral hemorrhage (MRI, extravasation of Hgb) post CHI (WT mice subjected to CHI; WT mice, IV immediately after or 2 hrs after CHI, Hgb at 2 or 8 hrs, MRI at 24 hrs): significantly attenuated the expansion of intracerebral hemorrhage; also recorded: inhibited
- inhibition of intracerebral hemorrhage compared with combination of TA and aprotinin (WT mice subjected to CHI; combination in optimal concentrations, FIG. 3B): comparable to the inhibition induced by a combination of TA and aprotinin
- neuroprotection (neurological severity score, NSS) (WT mice subjected to CHI; given 2 hrs after CHI, FIG. 5): the difference in neuroprotection provided by the two tPA variants vanished
- neuroprotection (neurological severity score, NSS, 24 hours after CHI) (WT mice subjected to CHI; given IV immediately after CHI, 1 mg/kg, FIG. 5): exerts neuroprotection
- potency as inhibitor of intracerebral hemorrhage compared with TA or aprotinin (WT mice subjected to CHI; optimal concentrations of TA or aprotinin, FIG. 3B): more potent inhibitors of intracerebral hemorrhage than optimal concentrations of TA or aprotinin
- expansion of post traumatic ICH in knock-out mice given exogenous WT-tPA or WT-uPA [4]: inhibited the expansion of the post traumatic ICH
- post-traumatic intracerebral hemorrhage (brain hemoglobin) in warfarin-anticoagulated mice [5]: almost totally inhibited
- activation of NMDA-Rs by WT-tPA (NMDA-Rs): inhibited activation of NMDA-Rs by WT-tPA
